From patent US20230121197A1, “ANTIBODIES SPECIFICALLY BINDING THE CARBOXYMETHYLATED CATALYTIC SUBUNIT OF PROTEIN PHOSPHATASE 2A” (Medizinische Universität Wien, priority 2020, published 2023)

B1: 7C10-C5 monoclonal antibody (antibody, V domains shown)
VH: DVQLQESGPGLVKPSQSLSLTCSVTGYSITSGYYWNWIRQFPGNKLEWMGYISYDGSNNYNPSLKNRISITRDTSKNQFFLKLNSVTTEDTATYYCAGRFAYWGQGTLVTVSA
VL: DVLMTQTPLSLPVSLGDQASISCRSSQSIVHSNGNTYLEWYLQKPGQSPKLLIYKVSNRFSGVPDRFSGSGSGTDFTLKINRVEAEDLGVYYCFQGSHVPWTFGGGTKLEIK
notes: Used as hybridoma culture supernatant (ELISA, Western blot, IHC) or at 50 µg/mL (SPR); also called 7C10 X63; clone 7C10-C5
B2: 7C10-C5: α-carboxymethylation specific mouse monoclonal IgG1 antibody from single clone hybridoma 7C10-C5 (DSM ACC3350) (antibody)
heavy: MYRMQLLSCIALSLALVTNSDVQLQESGPGLVKPSQSLSLTCSVTGYSITSGYYWNWIRQFPGNKLEWMGYISYDGSNNYNPSLKNRISITRDTSKNQFFLKLNSVTTEDTATYYCAGRFAYWGQGTLVTVSAAKTTAPSVYPLAPVCGDTTGSSVTLGCLVKGYFPEPVTLTWNSGSLSSGVHTFPAVLQSDLYTLSSSVTVTSSTWPSQSITCNVAHPASSTKVDKKIEPRGPTIKPCPPCKCPAPNLLGGPSVFIFPPKIKDVLMISLSPIVTCVVVDVSEDDPDVQISWFVNNVEVHTAQTQTHREDYNSTLRVVSALPIQHQDWMSGKEFKCKVNNKDLPAPIERTISKPKGSVRAPQVYVLPPPEEEMTKKQVTLTCMVTDFMPEDIYVEWTNNGKTELNYKNTEPVLDSDGSYFMYSKLRVEKKNWVERNSYSCSVVHEGLHNHHTTKSFSRTPGK
light: MDMRVPAQLLGLLLLWLSGARCDVLMTQTPLSLPVSLGDQASISCRSSQSIVHSNGNTYLEWYLQKPGQSPKLLIYKVSNRFSGVPDRFSGSGSGTDFTLKINRVEAEDLGVYYCFQGSHVPWTFGGGTKLEIKADAAPTVSIFPPSSEQLTSGGASVVCFLNNFYPKDINVKWKIDGSERQNGVLNSWTDQDSKDSTYSMSSTLTLTKDEYERHNSYTCEATHKTSTSPIVKSFNRNEC
modifications: Amino acid sequence of the recombinant 7C10-C5 heavy chain; Amino acid sequence of the recombinant 7C10-C5 light chain

Key:
[1] = target: T1, PP2Ac C-terminal peptide meL309, ac-HVTRRTPDYFL-CH3 (α-carboxymethylated) (human, SMILES …); assay: ELISA (FIG. 4)
T1 construct: also called Y307-meL309; mePP2Ac
T1 peptide: Ac-HVTRRTPDYFL-OMe
Protocol: Nunc Medisorp 96-well ELISA flat-bottom plates were coated with peptides L309 (ac-[…]) (SEQ ID NO:18), meL309 (ac-[…]-CH₃) (SEQ ID NO:18) or amL309 (ac-[…]-NH₂) (SEQ ID NO:18) at 2 μg/ml in TBS at 4° C. over-night. After washing once with TBS, the wells were incubated with 2% BSA in TBS for 1 h at RT. After washing once with TBS, the wells were incubated with single clone hybridoma cell culture supernatant clone 7C10-C5 1:50 (˜1 μg/ml) in 1% BSA/TBS for 1 h at RT. After washing twice with TBS, wells were incubated with anti-mouse HRP-coupled secondary antibody for 1 h at RT, followed by washing 3× in PBS. Bound antibodies were detected by colorimetric reaction with 3,3′,5,5′-Tetramethylbenzidine as substrate, and absorbance was measured at 450 nm. Values were normalized to meL309 which was set to 1. Average and standard deviation of N=8 experiments are shown. Statistical significance was assessed using ANOVA followed by Tukey's HSD as a post-hoc test. P values are indicated with *, **, ***, which correspond to values of <0.05, <0.01, and <0.001. […]

[2] = target: T2, PP6c peptides L305, meL305 (Homo sapiens, UniProt O00743); assay: ELISA with PP6c C-terminal undecapeptides; assay type: binding
T2 construct: carboxymethylated versus non-methylated PP2Ac, PP4c and PP6c C-terminal undecapeptides
Protocol: (§1) To further characterize the carboxymethyl-PP2Ac specificity of monoclonal antibody 7C10-C5 ELISAs were performed on carboxymethylated versus non-methylated PP2Ac, PP4c and PP6c C-terminal undecapeptides.
(§2) Specifically, flat-bottom Nunc-Immuno Medisorp 96-well ELISA plates (Thermo; 467320) were coated o/n at 4° C. with 50 μl of either a peptide of the sequence ac-HVTRRTPDYFL-OH (L309) (SEQ ID NO:18) at a concentration of 2 μg/ml in TBS (137 mM NaCl (AppliChem, #131659, 2.7 mM KCl (AppliChem, #131494), 24.8 mM Tris (AppliChem, #A1086), pH 7.4 with HCl), a peptide of the sequence ac-HVTRRTPDYFL-CH3 (meL309) (SEQ ID NO:18) 2 μg/ml in TBS, with a peptide of the sequence (ac-PSKKPVADYFL (L307) (SEQ ID NO:20) at a concentration of 2 μg/ml in TBS or with a peptide of the sequence ac-PSKKPVADYFL-CH3 (meL307) (SEQ ID NO:20) at a concentration of 2 μg/ml in TBS, with a peptide of the sequence ac-IPPRTTTPYFL (L305) (SEQ ID NO:22) at a concentration of 2 μg/ml in TBS or with a peptide of the sequence ac-IPPRTTTPYFL-CH3 (meL305) (SEQ ID NO:22) at a concentration of 2 μg/ml in TBS. […] Bound antibodies were detected colorimetrically by addition of 50 μl of 33 μg/ml […] (TMB) (Sigma, T2885) in 0.1 M sodium acetate pH 6.0 and 0.01% H2O2 (Sigma, H1009). […] The results from 560 nm read were subtracted from the 450 nm read.

[3] = target: T3, PP4c peptides L307, meL307 (Homo sapiens, UniProt P60510); assay: ELISA with PP4c C-terminal undecapeptides; assay type: binding
T3 construct: carboxymethylated versus non-methylated PP2Ac, PP4c and PP6c C-terminal undecapeptides
Protocol: as §1, §2

| Molecule | fold stronger binding than to the amidated C-terminal part of PP2Ac (ELISA) [1] | carboxymethylated versus non-carboxymethylated PP6c peptide signal [2] | carboxymethylated versus non-carboxymethylated PP4c peptide signal [3] |
| --- | --- | --- | --- |
| B1 | 6.15 fold | – | – |
| B2 | – | No significant difference | No significant difference |
